Results on 6 molecules are retold here after PMC6771040, “Bispecific GRPR-Antagonistic Anti-PSMA/GRPR Heterodimer for PET and SPECT Diagnostic Imaging of Prostate Cancer” (Cancers, 2019).

One data set in a line: in vivo. Details: species or system BALB/c nu/nu mice. The settings on record: female, BALB/c nu/nu, mouse, iv, 50 pmol/mouse, total radioactivity, Tumor-to-organ ratio. How it is done:
(§1) All animal experiments were planned and performed in accordance with the Swedish national legislation on the protection of laboratory animals and the study plans were approved by the Ethics Committee for Animal Research in Uppsala. Euthanasia was performed by the intraperitoneal injection of a ketamine-xylazine (Ketalar-Rompun) solution (200 mg/kg ketamine/Ketalar and 20 mg/kg xylazine/Rompun), and all efforts were made to minimize suffering. Prior to implantation, female outbred BALB/c nu/nu mice (n = 30) were quarantined for 1 week. The average animal weight at the time of the experiment was 16 ± 1 g. Xenografts expressing both PSMA and GRPR were established by the subcutaneous injection of ~0.8 × 10^7 PC3-PIP cells/mouse. Tumors were grown for 7 days and the average tumor weight at the time of the experiment was 0.3 ± 0.1 g. Before the experiments, animals were randomized into groups of four. Blood, salivary glands, lung, liver, spleen, pancreas, stomach, small intestines, kidneys, muscle, bone, and tumor samples were collected for radioactivity measurements. The gastrointestinal tract with content and the rest of the carcass were also collected. The activity of samples was measured together with the injection standard.
(§2) To evaluate the biodistribution over time, three groups of mice were intravenously co-injected through the tail vein with ^111In-6 and ^68Ga-6 (300 kBq for ^68Ga-6 and 40 kBq for ^111In-6) and sacrificed 1, 3, and 24 h pi. The total injected peptide mass was adjusted to 50 pmol/mouse.

The test system of data set [1] is PC3-PIP xenografts (PSMA and GRPR expressing). Description: in vivo. Further details: species or system BALB/c nu/nu mice. The settings on record: female, BALB/c nu/nu, mouse, iv, 50 pmol/mouse. As to the method: as §1, §2
In another data set the target is GRPR (Homo sapiens, UniProt P30550). How it is done:
(§3) The half-maximal inhibitory concentration (IC50) values towards PSMA and GRPR were determined for ^natIn-6 using PC3-PIP cells. ^111In-PSMA-617 was used as a displacement radioligand for PSMA and ^111In-DOTA-PEG2-RM26 was used for GRPR, respectively. Due to the presence of both targets on PC3-PIP cells, in each experiment, the secondary target was blocked with either 1 mM solution of NOTA-PEG6-RM26 or 2 mM PSMA-11. For comparison, the IC50 values were determined for the corresponding monomers towards PSMA and GRPR under the same experimental conditions. Briefly, cell monolayers were incubated with the radioligand (1 nM) at 4 °C for 5 h in the presence of increasing concentrations of ^natIn-loaded conjugates (0–540 nM for GRPR-targeting analogs, and 0–7500 nM for PSMA-targeting, respectively). Following incubation, cells were collected and the cell-associated radioactivity was measured in an automated gamma-counter. The IC50 values were calculated by nonlinear regression using GraphPad Prism software (GraphPad Software Inc., San Diego, CA, USA).

Data set [2] has as its target T1, PSMA (Homo sapiens, UniProt Q04609).
T1 construct: expressed in transfected cells; host or cells: PC3-PIP cells (PC-3 derived, kept under puromycin selection; obtained from Dr. Warren Heston, Cleveland Clinic)
Kind of data set: Competitive binding assay (IC50) towards PSMA on PC3-PIP cells. How it is done:
as §3

Data set [3] has as its system PSMA. The settings on record: 1 h pi; cited from earlier work.

T1 sequence (Q04609 whole entry): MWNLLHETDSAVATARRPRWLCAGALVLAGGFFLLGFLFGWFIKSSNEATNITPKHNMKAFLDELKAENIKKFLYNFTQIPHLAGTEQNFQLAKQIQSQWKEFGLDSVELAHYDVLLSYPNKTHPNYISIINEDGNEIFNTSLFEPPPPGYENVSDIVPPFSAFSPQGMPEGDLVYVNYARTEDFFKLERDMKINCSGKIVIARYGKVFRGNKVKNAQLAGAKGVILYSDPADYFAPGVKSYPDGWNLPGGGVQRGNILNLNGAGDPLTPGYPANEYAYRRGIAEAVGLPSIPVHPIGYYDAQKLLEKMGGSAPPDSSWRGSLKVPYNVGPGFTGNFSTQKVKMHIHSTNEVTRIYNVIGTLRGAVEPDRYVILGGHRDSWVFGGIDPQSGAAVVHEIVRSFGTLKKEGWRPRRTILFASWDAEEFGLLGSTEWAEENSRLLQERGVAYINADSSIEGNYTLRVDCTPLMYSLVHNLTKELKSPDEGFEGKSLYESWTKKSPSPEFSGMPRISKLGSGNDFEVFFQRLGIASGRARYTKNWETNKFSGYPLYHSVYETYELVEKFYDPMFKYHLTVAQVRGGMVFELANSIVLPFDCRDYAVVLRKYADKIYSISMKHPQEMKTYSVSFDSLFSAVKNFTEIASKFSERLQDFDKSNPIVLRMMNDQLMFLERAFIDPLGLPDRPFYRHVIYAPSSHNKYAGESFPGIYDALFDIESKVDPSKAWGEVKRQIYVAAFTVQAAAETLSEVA
Chain of GRPR (P30550 whole entry): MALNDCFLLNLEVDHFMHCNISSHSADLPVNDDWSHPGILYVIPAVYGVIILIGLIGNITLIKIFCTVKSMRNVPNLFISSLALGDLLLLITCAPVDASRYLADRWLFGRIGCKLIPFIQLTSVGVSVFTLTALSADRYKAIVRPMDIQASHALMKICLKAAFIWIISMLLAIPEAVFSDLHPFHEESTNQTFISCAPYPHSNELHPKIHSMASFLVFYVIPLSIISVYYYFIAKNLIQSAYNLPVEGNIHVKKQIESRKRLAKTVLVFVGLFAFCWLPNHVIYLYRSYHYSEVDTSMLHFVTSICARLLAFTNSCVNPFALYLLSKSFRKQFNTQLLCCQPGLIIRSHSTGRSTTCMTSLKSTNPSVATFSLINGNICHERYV

Regarding `CC(C)C[C@H](NC(=O)C[C@H](O)[C@H](CC(C)C)NC(=O)[C@H](Cc1c[nH]cn1)NC(=O)CNC(=O)[C@@H](NC(=O)[C@H](C)NC(=O)[C@H](Cc1c[nH]c2ccccc12)NC(=O)[C@H](CCC(N)=O)NC(=O)[C@@H](Cc1ccccc1)NC(=O)CCOCCOCCOCCOCCOCCOCCNC(=O)[C@H](CCCCNC(=O)CN1CCN(CC(=O)O)CCN(CC(=O)O)CC1)NC(=O)CCCCCCCNC(=O)CC[C@H](NC(=O)N[C@@H](CCC(=O)O)C(=O)O)C(=O)O)C(C)C)C(N)=O` [111In-6, metal not drawn], the tissue to tissue ratio at 1 h in the data set “in vivo” (Blood) came to 30 ± 4; in the data set “in vivo” (Kidneys), 1.2 ± 0.2; in “in vivo” (Muscle), 101 ± 25; in the data set “in vivo” (Pancreas), 3.5 ± 0.8; in the data set “in vivo” (Salivary glands), 72 ± 13; in the data set “in vivo” (Small intestine), 12 ± 4. Moreover, the tissue to tissue ratio at 1 h in “in vivo” (Stomach) was determined as 10 ± 3. For the same molecule, the tissue to tissue ratio at 24 h in “in vivo” (Blood) came to 192 ± 66; in the data set “in vivo” (Bone) it was 19 ± 15; in “in vivo” (Kidneys) it was 0.6 ± 0.1; in “in vivo” (Liver) it was 4.8 ± 0.8; in “in vivo” (Lung) it was 34 ± 11; in “in vivo” (Muscle) it was 72 ± 59. Also, the tissue to tissue ratio at 24 h in “in vivo” (Pancreas) was 16 ± 2; in “in vivo” (Salivary glands) it was 26 ± 4; in the data set “in vivo” (Small intestine), 27 ± 6; in “in vivo” (Spleen), 30 ± 16; in “in vivo” (Stomach) it was 61 ± 52. The tissue to tissue ratio at 3 h in “in vivo” (Bone) is 52 ± 22; in the data set “in vivo” (Kidneys) it was 1.4 ± 0.2; in the data set “in vivo” (Muscle) it was 210 ± 90; in the data set “in vivo” (Pancreas), 21 ± 1; in the data set “in vivo” (Small intestine), 42 ± 9; in “in vivo” (Stomach), 29 ± 12. For the same molecule, in data set [1] (1 h), the “Tumor-to-organ ratio, Bone” value worked out at 75±50. Besides, the “Tumor-to-organ ratio, Liver” value in data set [1] (1 h) was found to be 22±4; in data set [1] (3 h), 20±2. Further, the “Tumor-to-organ ratio, Lung” value in data set [1] (1 h) amounted to 32±3; in data set [1] (3 h), 64±30. Also, the “Tumor-to-organ ratio, Spleen” value in data set [1] (1 h) came out at 44±6; in data set [1] (3 h), 59±16. Further, the “Tumor-to-organ ratio, Blood” value in data set [1] (3 h) is given as 115±13. For the same molecule, in data set [1] (3 h), the “Tumor-to-organ ratio, Salivary glands” value turned out to be 93±10.
The IC50 is the concentration that inhibits the measured activity by half. As for `CC(C)C[C@H](NC(=O)C[C@H](O)[C@H](CC(C)C)NC(=O)[C@H](Cc1c[nH]cn1)NC(=O)CNC(=O)[C@@H](NC(=O)[C@H](C)NC(=O)[C@H](Cc1c[nH]c2ccccc12)NC(=O)[C@H](CCC(N)=O)NC(=O)[C@@H](Cc1ccccc1)NC(=O)CCOCCOCCOCCOCCOCCOCCNC(=O)[C@H](CCCCNC(=O)CN1CCN(CC(=O)O)CCN(CC(=O)O)CC1)NC(=O)CCCCCCCNC(=O)CC[C@H](NC(=O)N[C@@H](CCC(=O)O)C(=O)O)C(=O)O)C(C)C)C(N)=O` [natIn-6, metal not drawn], the “fold change of IC50 for GRPR, heterodimer vs monomer” value on GRPR (dimerization effect) is reported as 10 fold. In addition, the IC50 at GRPR (read-out: IC50 towards GRPR, PC3-PIP cells, 4 °C, 5 h, PSMA blocked, natIn-loaded conjugates) was found to be 4 ± 1 nM; at PSMA [2] (read-out: IC50 towards PSMA, PC3-PIP cells, 4 °C, 5 h, radioligand 111In-PSMA-617, GRPR blocked, natIn-loaded conjugates) it was 824 ± 230 nM.
For the molecule `O=C([O-])CN1CCN(CC(=O)[O-])CCN(CC(=O)NC[C@H]2CC[C@H](C(=O)N[C@@H](Cc3ccc4ccccc4c3)C(=O)NCCCC[C@H](NC(=O)N[C@@H](CCC(=O)O)C(=O)O)C(=O)O)CC2)CCN(CC(=O)[O-])CC1.[68Ga+3]` [^68Ga-PSMA-617], the “activity uptake in the kidneys relative to tumors” value in the data set on PSMA [3] was 8 fold.
For `CC(C)C[C@H](NC(=O)C[C@H](O)[C@H](CC(C)C)NC(=O)[C@H](Cc1c[nH]cn1)NC(=O)CNC(=O)[C@@H](NC(=O)[C@H](C)NC(=O)[C@H](Cc1c[nH]c2ccccc12)NC(=O)[C@H](CCC(N)=O)NC(=O)[C@@H](Cc1ccccc1)NC(=O)CCOCCOCCOCCOCCOCCOCCNC(=O)[C@H](CCCCNC(=O)CN1CCN(CC(=O)O)CCN(CC(=O)O)CC1)NC(=O)CCCCCCCNC(=O)CC[C@H](NC(=O)N[C@@H](CCC(=O)O)C(=O)O)C(=O)O)C(C)C)C(N)=O` [compound 6, Glu-Urea-Glu-Aoc-Lys(NOTA)-(PEG)6-RM26], the “fold change of IC50 for PSMA, heterodimer vs monomer” value at PSMA [2] (dimerization effect) stood at 5 fold.
In the case of `CC(C)C[C@H](NC(=O)C[C@H](O)[C@H](CC(C)C)NC(=O)[C@H](Cc1c[nH]cn1)NC(=O)CNC(=O)[C@@H](NC(=O)[C@H](C)NC(=O)[C@H](Cc1c[nH]c2ccccc12)NC(=O)[C@H](CCC(N)=O)NC(=O)[C@@H](Cc1ccccc1)NC(=O)CCOCCOCCOCCOCCOCCOCCNC(=O)[C@H](CCCCNC(=O)CN1CCN(CC(=O)O)CCN(CC(=O)O)CC1)NC(=O)CCCCCCCNC(=O)CC[C@H](NC(=O)N[C@@H](CCC(=O)O)C(=O)O)C(=O)O)C(C)C)C(N)=O` [68Ga-6, metal not drawn], in data set [1] (1 h), the “Tumor-to-organ ratio, Blood” value is given as 24±3; the “Tumor-to-organ ratio, Bone” value was 30±11; the “Tumor-to-organ ratio, Kidneys” value is recorded as 1.2±0.1; the “Tumor-to-organ ratio, Liver” value turned out to be 5.9±0.9. Besides, in data set [1] (1 h), the “Tumor-to-organ ratio, Lung” value came to 15±3; the “Tumor-to-organ ratio, Muscle” value is reported as 78±28; the “Tumor-to-organ ratio, Pancreas” value was 4.4±0.6; the “Tumor-to-organ ratio, Salivary glands” value turned out to be 43±8. Also, in data set [1] (1 h), the “Tumor-to-organ ratio, Small intestine” value was 11±3; the “Tumor-to-organ ratio, Spleen” value was 16±4; the “Tumor-to-organ ratio, Stomach” value is 10±4. Further, in data set [1] (3 h), the “Tumor-to-organ ratio, Blood” value is 44±6; the “Tumor-to-organ ratio, Bone” value came out at 67±21; the “Tumor-to-organ ratio, Kidneys” value was determined as 0.9±0.2; the “Tumor-to-organ ratio, Liver” value was determined as 4±1. Besides, in data set [1] (3 h), the “Tumor-to-organ ratio, Lung” value was 28±17; the “Tumor-to-organ ratio, Muscle” value is given as 128±57; the “Tumor-to-organ ratio, Pancreas” value is 18±6; the “Tumor-to-organ ratio, Salivary glands” value is reported as 43±8. For the same molecule, in data set [1] (3 h), the “Tumor-to-organ ratio, Small intestine” value is listed as 33±27; the “Tumor-to-organ ratio, Spleen” value came out at 11±1; the “Tumor-to-organ ratio, Stomach” value is given as 45±39.
As for `O=C([O-])CN(CCN(CC(=O)[O-])Cc1cc(CCC(=O)NCCCCCC(=O)NCCCC[C@H](NC(=O)N[C@@H](CCC(=O)O)C(=O)O)C(=O)O)ccc1[O-])Cc1cc(CCC(=O)O)ccc1[O-].[68Ga+3].[OH3+]` [^68Ga-PSMA-11], the “activity uptake in the kidneys relative to tumors” value with PSMA [3] was 20 fold.
